Laboratory results published in patent US20220275098A1.

Target: CD30 (analyte in SPR) (UniProt P28908)
Assay: SPR, 25° C. pH 7.4, scFv captured on chip, CD30 as analyte, average value

Sequence of CD30 (analyte in SPR) (P28908 19-379 limits assumed): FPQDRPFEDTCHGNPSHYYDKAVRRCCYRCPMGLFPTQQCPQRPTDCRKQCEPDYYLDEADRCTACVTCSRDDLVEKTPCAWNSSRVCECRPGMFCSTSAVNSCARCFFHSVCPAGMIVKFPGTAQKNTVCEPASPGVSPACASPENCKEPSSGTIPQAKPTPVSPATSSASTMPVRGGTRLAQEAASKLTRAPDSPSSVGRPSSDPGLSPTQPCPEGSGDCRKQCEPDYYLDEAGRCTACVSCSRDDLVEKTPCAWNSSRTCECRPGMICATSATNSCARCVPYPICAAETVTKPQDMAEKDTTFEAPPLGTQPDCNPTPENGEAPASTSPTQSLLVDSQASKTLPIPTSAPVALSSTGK

B1: anti-CD30 clone 52-2 scFv (scFv, part only; not given: Linker, domain order, tag, V domains shown, not shown: another chain or arm of the molecule; small tags and cut ends)
VH: EVQLVESGGGLVQPGGSLRLSCAASGFTFSSYYMHWVRQAPGKGLEWVSAISWSGGSTYYADSVKGRFTISRDNSKNTLYLQMNSLRAEDTAVYYCARDRFMPFIPNTLGFDVWGQGTLVTVSS
VL: DIQMTQSPSSLSASVGDRVTITCQASQDISNYLNWYQQKPGKAPKLLIYVASNLETGVPSRFSGSGSGTDFTFTISSLQPEDIATYYCQQDADVPLTFGQGTKVEIK
Kd: 0.8 nM
